This is an account of results in article PMC8550791.

The assay addresses K48-linked pentaubiquitin (UniProt P0CG48).

Take “MINDY1 P138A (residues 110-384) (from UniProt Q8N5J2 110-384) (domain or fragment)”: the Km of steady-state kinetics of cleavage of fluorescently labeled K48-linked pentaUb, against MINDY1 WT amounted to 3 fold lower.
